Literature values as cited in PMC3742252.

Molecular target: TSH (Bos taurus) (UniProt P01217)

Kd: 1 nM
Substance: thyroid-stimulating hormone receptor (from UniProt Q8SPP9)
